In a protein production outcome set (Wang et al. 2014):

experiment: label from the status in PepcDB records
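Also: failed if final PepcDB status was selected cloned or expressed and not failed if soluble or beyond.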

Sequence	protein production
GIPSLVATAERRMKLVPGSVVMQFASIGFDVAVFELSMALCTGSRLVIVPDESRVAGPELTDFMAAHAVTHAIIPPSLLAALPSGCDVPEGCTVLVGTETVPPELIGRWAERLNLLAAYGLTEATVNNTLWQAQPGWDSAVPIGIP	failed
GKIVEIGVGFYLEVAKRLRESGIDILVVDINEKAINYARKQGIKGVVDDIFNPTLGIYKDAKAIYSIRPAPEMMKPLLDLARKLKIPLYIVPLTGDR	failed
GKSFDAVRRTLSTELAQLRDDISRLMQAAVEAGAEAADDGEAVVISGERKLLDVTDIASDMDRLRKMFSLFEKKTDLLQLLDVSSRAQGVQIYIGGDSQLVPMEEVSVITAPYGVDGKVIGTLGVIGPTRMAYERVIPIVDITARLLSNALSHNQ	failed
GKVYTINSGPIYANPIIHHQVNEKIGYLVYSAFESGFDQELFDVFKEFKSQNITELILDLRYNGGGDVTSANLISSCIAGDLCIDKTFASYRYNDERMKVLGNQRPIQKFAYSQYDNLSTSLSAGGLNLRKIYCLVTDDSASASELVINALRGIDIEVILIGTTTHGKNVGMEGVELTAGTDKYLLFPITFQAYNAKGFGDFENGFTPDYEINENKPNGEYFEGYGDFGAESDPLYAKAISLISGNEVTT	failed
GLPRRAVTQLVEQPLVVVDFLAHITAQGGHAAVIGWKDLAYAGVIDSGGVCENIIAIPNPGTEPLNVAAVLCEGLDVVVYKGPEISLSPTRARPLLGKLRQGTAALVMVGTKVSSPALSVDAEITDYVGIGAGSGRIRGVEMQVRAVSKTHGVRSGKVLISRP	failed
GMKAADFTYVTVHGDNSRMSRLKAQYTMLFFYDPDCSNCRKFEKLFAEIPAFVEMVENGTLRVLAIYPDENREEWATKAVYMPQGWIVGWNKAGDIRTRQLYDIRATPTIYLLDGRKRVILKDTSMEQLIDYLATQAG	not failed
GNLSFLATSDGASLAYRLDGAAEKPLLALSNSIGTTLHMWDAQLPALTRHFRVLRYDARGHGASSVPPGPYTLARLGEDVLELLDALEVRRAHFLGLSLGGIVGQWLALHAPQRIERLVLANTSAWLGPAAQWDERIAAVLQAEDMSETAAGFLGNWFPPALLERAEPVVERFRAMLMATNRHGLAGSFAAVRDTDLRAQLARIERPTLVIAGAYDTVTAASHGELIAASIAGARLVTLPAVHLSNVEFPQAFEGAVLSFLGA	not failed
GPHQRLEKLDSLLSDYDILSLSNIQQHSVRKRDLQTSTHVETLLTFSALKRHFKLYLTSSTERFSQNFKVVVVDGKNESEYTVKWQDFFTGHVVGEPDSRVLAHIRDDDVIIRINTDGAEYNIEPLWRFVNDTKDKRMLVYKSEDIKNVSRLQSPKVCGYLKVDNEELLPKGLVDREPPEGKT	not failed
GQGVSRSGALDLGALRSANRTVGNPSDMACVESVLGGLSFSCHGSAVIAITGAHTPVTITSASGLQWQASNYQPIELETGDRVSLGSPKAGLRSYLAIRGGFDVTPVLGSLSTDTLAQLGPEALATGDRLGFTAPVNGTSVSLNEAPAFELPTTANIVTLDVVMGPRTDWFTENAIQRLSSQLWRVTPQSNRVGIRLAGDTPLERSNHQELPSEGTSVGAIQVPASGQPVLFLADHPLTGGYPVIASVASHHLDLAGQIPVNAQIRFNPLGAFEEMQPSTEASFSTADAKNNS	failed
GQLDLLRSNTGLLYRIKDSQNAGKMKGSDNQEKLVYQIIEDAGNKGIWSRDVRYKSNLPLTEINKILKNLESKKLIKAVKSV	not failed
GQVDGEDVVSISSADLDETEGNLNMTTVSVRSGMTLSQVISRWLFTDDTIVPIEQVFPPGQSTEEVEESNRTAFISSESSATIAAMNYLNIPVEVEVAEVLTDSAATGIFEPGDKLLSIDGTAISTPGDAQTIVRSKAPGDEITISYERNDAESQATITLREHPDDSSVALLGISMLSVP	failed
GRRFVMVPGIGGSGPEHWQSHWESLYPNTLRIEPNSWDEPDLADWFAALDRAVAAAPYPPVLVCHSLGCLLFAHWRAASSRAIAAAFLVAVPDPSGPAFPAQAKAFGALPATGFGERPVLAVASENDPYDPEASAIAWAVRQGAWPRRLGPRGHLNEASNIGAWPEGQELLADFLDKIGE	failed
GSFQYVPVQLQGGAPWGFTLKGGLEHCEPLTVSKIEDGGKAALSQKMRTGDELVNINGTPLYGSRQEALILIKGSFRILKLIVRRRN	not failed
GSGCPLLENVISKTINPQVSKTEYKELLQEFIDDNATTNAIDELKECFLNQTDETLSNVEVFMQLIYDSSLCDLF	failed
GSHMEKVPGEMEIERRERSEELSEAERKAVQAMWARLYANCEDVGVAILVRFFVNFPSAKQYFSQFKHMEDPLEMERSPQLRKHACRVMGALNTVVENLHDPDKVSSVLALVGKAHALKHKVEPVYFKILSGVILEVVAEEFASDFPPETQRAWAKLRGLIYSHVTAAYKEVGWVQQVPNATTPPATLPSSGP	not failed
GSHMPVPSFGEAMAYFAMVKRYLTSFPIDDRVQSHILHLEHDLVHVTRKNHARQAGVRGLGHQS	not failed

Sequence	protein production
GSIPRVLISADRSSSGKTTISMGLMAALVSRGYKVQPFKVALDYIDPSYHTEITGRFCRNLDGYLMDEHGILDVYTHACETGGGADIAIIEGVRGLFEGFESLSDVGSTAQIAKILKCPVVFVINARSITRSAAALIGGYKNFDPDVEIAGVILNNIGGRRHAQKAKEAIEHYTGVPVLGIIPRDPSMQISMRHLGLMPALEGRRRFGDGGFENRLHGIEEIINKGIDVDRFLGIAESAKPLTALENSIFSPAVNENSQKPKIGVALDEAFNFYYRDNIDLLEIAGAEIVYFSPVNDPGLPEVDGLYIGGGYPELFAAELEANETMRKSIKEASAAGMPIYAECGGLMYLTEKISTGVPGKGTYHDASMPESTYSMVGALPGHTIMGQTRVVSYNIGTLARDCPIGKKGNSFKGHEFHHSEILEIPDDAEFAIALTRGTGIRGDRDGLIVNNTIGSYAHLHGVAYRELAGSLVEAARKFRDS	failed
GSKGSRIELGDVTPHNIKQLKRLNQVIFPVSYNDKFYKDVLEVGELAKLAYFNDIAVGAVCCRVDHSQNQKRLYIMTLGCLAPYRRLGIGTKMLNHVLNICEKDGTFDNIYLHVQISNESAIDFYRKFGFEIIETKKNYYKRIEPADAHVLQKNLKVPSGQNADVQKTDN	failed
GSSGSSGMKQATRKPTTPGDILLYEYLEPLDLKINELAELLHVHRNSVSALINNNRKLTTEMAFRLAKVFDTTVDFWLNLQAAVDLWEVENNMRTQEELGRIETVAEYLARREERAKKVA	not failed
GSSGSSGPSSPSIDQVEPYSSTAQVQFDEPEATGGVPILKYKAEWRAVGEEVWHSKWYDAKEASMEGIVTIVGLKPETTYAVRLAALNGKGLGEISAASEFKTQPVREPSAPKLEGSGPSSG	not failed
GSSGSSGWVAFDKQVLSFDAYLEEEVLDKSQTNYRIRYYKIYFYPEDDTIQVNEPEVKNSGLLQGTSIRRHRITLPPPDEDQFYTVYHFNVGTEVVFYGRTFKIYDCDAFTRNFLRKIGVKVNPPVQSGPSSG	not failed
GTAYWKNPDQFTAFNTGLHALLREKSYNFFLLGEPRADIYGDNPIGGEASQGMERLPFNTINKENVGISNYGDMYKIINQINQMIAKTTETTILTEATQNYYLGEAYGMRAYLYFHLLRSWGDVVLYLDYTEGQNLDLSNITKGVSPATEVMEQIKKDIQASENAFGSDYSFKLGRHFWSAAATQMLKGEAYLWSGRQMNGGNSDYTIAKNAFENVKKADVGLVTSSFKDIFSFENKKNKEMIFTIHNGKDEYEMWGGYYRMRLIPAQDKMVKIYCDENGNSFVGTPDAQLNGLTQLQVRREFYFKGFRNNDTRWTTSLKAVYKKDAQGVVSYFGPITYKFQGTMLEGGSTRSFLDDFPIYRYADCLLQLAMAKVLLGEDPTEEINAVRERAYGSKYFNEHKAEIAYPNDNDPEFYTDNKWMKPDNAGALEAILKERLREFMFEGKRWYDIRLLGWDYVHQYSSAEQSRLLWPIDAGTLTNNSALKQTPGYE	not failed
GTPVSDAEEIKVKYGCALSELVSKDDTVNVPSVGGRPSRSLQRQTLSEVIEPRYSELMGLVNQTIDSVQAKLREEGIKHH	failed
GTQAGVPAWSTIKVPISIAALRANPGNDVLMRQAITVSDNDAARALWDSLGSPREKVGAVLAQGGDPQTQVNDQPGMRTFC	failed
GVLDDIRFGVRRTLNARIASQAQWYALGAEQLARTRIAQLMDREPNKTTLEGGWNGRVISFPIEQGRMEAKLTDATGCFNLNSVVEANQGEPFRRRELGVRQFTTLLSLVGVSNGPELAENLADWMDSNDVGRAEAEDPGYAQLAQPYRTAGGPLAEVSELRAIRGFTPSVYAALRPYVCALPTTDLSPINVNTLPPERALLLTALTEGRIGRETAARVLSGRPVNGWPDAQAFWGQQALVATPPGDVVRDQIKFRTRFFALDSQIVFADMPVFMTALFETPSASKVILA	failed
GVSVSPDETMLAFGEDVLSRRVYNIYFKDIESGAMITDVLENTEGRIVWGNDNRHVFYIAKDLQTLLGNRVYRHELGTPQSRDVLVYEEQDDAYYISLGKSLDESQIVLFHESTTTSEVSVLDANDPLSLFKPVLAREEGHEYSVSKLGDSYYVLTNWQATNFRLMKVAIKDAADKSKWQEVVAHNPNARLEDELVLKDYLIIQTRENGLTRIKVMPFNGQKPFELSFDEPAYVLGLDVNA	failed
HALAERDRPLPTHLVLSGRMPPHTGYSPLLGAMDDNQLWQHVCSESLLPLPTDASCSFARHALGKLKADLALNAQLTYRFIRPLPVPLYVLNGQDDPLLELHRLDEWQRYTSTSFHSEYVPGGHFFFNINFQLLYLPLLTALD	failed
HALGAPVLRVEGLSQAGHFRNVSFEVRAGEVLGITGLLGSGVKELVECLFGLEQPDAGSVTIDGEVRRFANPGRAVQGRVALVPEDRRAHGVATDMSVRDNITIASLERYMTRGFVSRARENEAVDGFIRELSIKTPHRDQLVRNLSGGNQQKVALAKWLSCQSRVYVLDEPTVAVDVGAKVEIYTLLNRLAAEGAAILFLSSDLLEIAGFCDRALVVYRGTLNGEFAGETLDSDLLLAAASGARAQRKEA	failed
HARKSLTVLVVGESARAENFGILGYGRNTTPNLNKENGLVAFTDVYSCGTETAVSVPCMFSNMGRKNYNATKARNQEGLLDVLKHAGIEVAWRDNQSGCKGTCDRVTFQDVSNLTDPLLCNSHECRDEILLQNLQGFIDSLDKDTVLVLHQMGSHGPEYYKRYPKEFEKFTPVCESNALNNCSRDSIVNAYDNTLLYTDHVLSTLIDLLRSNQAKVDTAMVYLSDHGESLGEYNLFLHGTPYVLAPDQQKHVPMLIWLSDTYQKSFAVTPDCLAKQRNAPLSQDNLFHSMLGLLKVDTKVY	failed
HEETECPLRLAVCQHCDLELSILKLKEHEDYCGARTELCGNCGRNVLVKDLKTHPEVCGREG	not failed
HIQKGIAGEQKACAFLEQQGYKIIEKNLRIGKGEIDLIAVHNNCMCFIEVKYRKHNRYGFPEEFVTQKKLLKIQETAEAYIYTVNWQGRIRFDVVAITGEELPVHL	failed
HKPWRAEYAKSSRSSCKTCKSVINKENFRLGKLVQSTHFDGIMPMWNHASCILKKTKQIKSVDDVEGIESLRWEDQQKIRKYVESGAGSNTSTSTGTSTSS	not failed
